According to article PMC6566460:

Biological target: recombinant histone H2B (UniProt P06899)
Experiment: SEC + other: RP-HPLC; synthetic H2A.Z and recombinant H2B unfolded together (7 M Gdn·HCl, 20 mM mercaptoethanol, 20 mM Tris·HCl, pH 7.5; 2 h on ice), dialysed three times against refolding buffer (2.0 M NaCl, 2.0 mM mercaptoethanol, 10 mM Tris·HCl, pH 7.5) at 4 °C for 3 h; SEC of the reconstituted mixture, then RP-HPLC at 280 nm; ratio from peak areas and the number of tyrosines

stoichiometry N: 1
Substance: synthetic histone H2A.Z (from UniProt P0C0S5 1-128) (natural protein)
